T1: BTLA triple mutant (3NQ) (human, UniProt Q7Z6A9 31-289, limits assumed)
T1 construct: N to Q read from the label
T1 chain: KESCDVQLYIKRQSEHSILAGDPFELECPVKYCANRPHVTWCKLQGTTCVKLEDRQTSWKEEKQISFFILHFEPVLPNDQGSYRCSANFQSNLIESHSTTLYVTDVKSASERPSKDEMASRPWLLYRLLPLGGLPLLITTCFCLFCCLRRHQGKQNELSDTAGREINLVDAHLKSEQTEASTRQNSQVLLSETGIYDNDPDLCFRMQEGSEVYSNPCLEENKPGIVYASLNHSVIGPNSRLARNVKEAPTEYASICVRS


Tests used:
BTLA triple mutant (3NQ) = molecular target: T1, BTLA triple mutant (3NQ); test: Western blot
Experimental: (§1) Immunoblot analysis was performed as described previously (Lim et al., 2008, Gastroenterology, 135:21 28-40; and Lee et al., 2007, Cell, 130:440-455). Image acquisition and quantitation of band intensity were performed using a Chemdoc Imager (BioRad, Hercules, Calif., US). The secondary antibodies were anti-mouse or -rabbit Alexa Fluor 488 or 594, and nuclei were stained with 4′,6-diamidino-2-phenylindole (DAPI) (Life Technologies, Carlsbad, Calif., US).
(§2) In the Western blot assays, anti-BTLA mAbs were tested for their ability to recognize fully glycosylated wild-type BTLA and to recognize certain BTLA mutants lacking two (N75/2NQ, N94/2NQ, N116/2NQ) or all three (3NQ) of BTLA's N-glycosylation sites. […] Generally, the band intensities shown in the Western blots of FIG. 2 indicate the specific glycosylation motif recognized by each of the tested antibodies and the binding strength of the tested antibodies to the recognized glycosylation motifs.

N75/2NQ [1] = molecular target: T2, N75/2NQ (human, UniProt Q7Z6A9); test: Western blot of BTLA WT and glycosylation-site mutants probed with STC626 [continued]
T2 construct: double mutant, single glycosylation site N75; One member of the group m43; also called BTLA double mutant that retains only the N75 glycosylation site
Experimental: as §1, §2

N75/2NQ [2] = molecular target: T2, N75/2NQ; test: Western blot of BTLA WT and glycosylation-site mutants probed with STC613 [continued]
Experimental: as §1, §2

Row | binding result (BTLA triple mutant (3NQ)) | binding result (N75/2NQ [1]) | binding result (N75/2NQ [2]) | Binder
1 | no binding | binds |  | STC626 (antibody, V domains shown) VH: QIQLVQSGPELKKPGETVKISCKASGYTFTNYGMNWVKQAPGKGLKWMGWINTNTGEPTYAEEFKGRIAFSLESSASTAYLQINNLKNEDTATYFCAREGVRRGGYFFDYWGQGTTLTVSS VL: DIQMTQSPASLSVSVGETVTITCRASENIYSNLAWYQQKQGKSPQLLVYAATNLADGVPSRFSGSGSGTQYSLKINSLQSEDFGSYHCQHFWGFPFTFGAGTKLEIKR
2 | no binding |  | binds | STC613 (antibody, V domains shown, also called STM613) VH: EVQLQQSGAELVRPGASVKLSCTASGFNIRDDYVHWLKQRPDQGLEWIGRIDPANGKTKYDPKFQDKATITADTSSNTAYLQLSSLTSEDTAVYFCVREGGSNYDYAMDYWGQGTSVTVSS VL: not shown

— patent US20180264110A1 (STSCIENCES, published 2018)
